The experiment has as its target HA-Foldon (HA1-521 fused at the C-terminus to the bacteriophage T4 fibritin trimerization motif) (influenza A or B virus (strain not stated for this experiment) | bacteriophage T4). Nature of the experiment: native gel or EMSA. (Mobility shift assays separate free from complexed probe on a gel.)

What is called stoichiometry N is the number of molecules, sites or subunits per partner or assembly.

For “HA-Foldon (HA1-521 fused at the C-terminus to the bacteriophage T4 fibritin trimerization motif)”, the stoichiometry N was 3.

These data come from paper PMC12299999.
